Key:
Test in all cases: cell-based or functional assay
[1] = target: T1, IL-36 receptor (heterodimer of IL-36R and IL-1RAcP) on human cells (human, UniProt Q9HB29 20-575; Q9NPH3 21-570)
T1 sequence (looked up) 1: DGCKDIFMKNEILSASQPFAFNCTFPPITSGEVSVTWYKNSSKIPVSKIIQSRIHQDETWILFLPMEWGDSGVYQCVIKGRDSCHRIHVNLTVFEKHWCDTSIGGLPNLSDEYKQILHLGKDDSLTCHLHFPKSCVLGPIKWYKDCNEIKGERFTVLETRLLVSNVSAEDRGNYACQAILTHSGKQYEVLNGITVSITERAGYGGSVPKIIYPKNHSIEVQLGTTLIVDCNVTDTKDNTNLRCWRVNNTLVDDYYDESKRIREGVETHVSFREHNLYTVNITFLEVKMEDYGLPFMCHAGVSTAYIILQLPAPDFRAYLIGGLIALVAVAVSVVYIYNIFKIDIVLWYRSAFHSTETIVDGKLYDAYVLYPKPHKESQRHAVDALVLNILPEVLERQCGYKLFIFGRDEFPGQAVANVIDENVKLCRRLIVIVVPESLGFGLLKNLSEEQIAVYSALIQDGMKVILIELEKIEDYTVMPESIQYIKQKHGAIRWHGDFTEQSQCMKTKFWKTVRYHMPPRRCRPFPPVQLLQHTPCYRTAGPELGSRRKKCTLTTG
T1 sequence (looked up) 2: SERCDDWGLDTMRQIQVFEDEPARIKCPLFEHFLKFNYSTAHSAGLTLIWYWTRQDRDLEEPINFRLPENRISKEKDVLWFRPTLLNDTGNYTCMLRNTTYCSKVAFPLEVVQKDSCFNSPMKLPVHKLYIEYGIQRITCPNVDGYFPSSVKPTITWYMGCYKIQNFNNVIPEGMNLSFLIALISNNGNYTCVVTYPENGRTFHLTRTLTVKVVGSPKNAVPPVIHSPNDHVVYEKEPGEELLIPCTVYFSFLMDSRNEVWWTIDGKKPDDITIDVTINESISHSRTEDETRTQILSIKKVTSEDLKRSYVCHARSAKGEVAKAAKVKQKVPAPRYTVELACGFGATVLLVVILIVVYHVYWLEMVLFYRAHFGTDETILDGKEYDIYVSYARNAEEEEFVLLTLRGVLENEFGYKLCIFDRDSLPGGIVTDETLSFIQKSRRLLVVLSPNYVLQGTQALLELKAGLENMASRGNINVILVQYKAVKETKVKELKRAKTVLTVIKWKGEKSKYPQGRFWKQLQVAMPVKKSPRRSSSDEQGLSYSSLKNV

[2] = target: T1, IL-36 receptor (heterodimer of IL-36R …); remark: listed apart in the source
[3] = target: T1, IL-36 receptor (heterodimer of IL-36R …); remark: listed apart in the source
[4] = target: T1, IL-36 receptor (heterodimer of IL-36R …); remark: listed apart in the source

B1: human IL-36Ra, truncated (ligand)
chain: VLSGALCFRMKDSALKVLYLHNNQLLAGGLHAGKVIKGEEISVVPNRWLDASLSPVILGVQGGSQCLSCGVGQEPTLTLEPVNIMELYLGAKESKSFTFYRRDMGLTSSFESAAYPGWFLCTVPEADQPVRLTQLPENGGWNAPITDFYFQQCD
IC50 of IL-8 secretion, primary human keratinocytes, 6.25 nM human IL-36α, FIG. 4A [1]: 0.0112 µM
IC50 of IL-8 secretion, primary human keratinocytes, 8 nM human IL-36α, FIG. 4B [1]: 0.0346 µM
IC50 of IL-8 secretion, primary human keratinocytes, 8.4 nM human IL-36γ, FIG. 4C [1]: 0.109 µM
IC50 of IL-8 secretion, primary human keratinocytes, 8.4 nM human IL-36γ, FIG. 4D [1]: 0.0479 µM
IC50 of IL-8 secretion, HaCaT, 10 nM cynomolgus IL-36α, FIG. 2A [2]: 0.0218 µM
IC50 of IL-8 secretion, HaCaT, 10 nM cynomolgus IL-36α, FIG. 2B [2]: 0.0208 µM
IC50 of IL-8 secretion, HaCaT, 10 nM human IL-36α, FIG. 1A [2]: 0.0399 µM
IC50 of IL-8 secretion, HaCaT, 10 nM human IL-36α, FIG. 1B [2]: 0.0466 µM
IC50 of IL-8 secretion, HaCaT, 10 nM human IL-36α, FIG. 1C [2]: 0.0906 µM
IC50 of IL-8 secretion, HaCaT, 10 nM cynomolgus IL-36γ, FIG. 2C [3]: 0.174 µM
IC50 of IL-8 secretion, HaCaT, 10 nM cynomolgus IL-36γ, FIG. 2D [3]: 0.235 µM
IC50 of IL-8 secretion, HaCaT, 10 nM human IL-36γ, FIG. 1D [3]: 0.0451 µM
IC50 of IL-8 secretion, HaCaT, 10 nM human IL-36γ, FIG. 1E [3]: 0.0865 µM
IC50 of IL-8 secretion, HaCaT, 10 nM human IL-36γ, FIG. 1F [3]: 0.129 µM
IC50 of IL-8 secretion, primary human monocytes, 6 nM human IL-36γ, FIG. 5C [4]: 0.038 µM
IC50 of IL-8 secretion, primary human monocytes, 20 nM human IL-36α, FIG. 5A [4]: 0.0465 µM
IC50 of IL-8 secretion, primary human monocytes, 40 nM human IL-36α, FIG. 5B [4]: 0.0691 µM
IC50 of IL-8 secretion, primary human monocytes, 50 nM human IL-36γ, FIG. 5D [4]: 0.0763 µM
